Data published in publication PMC6442418, “Pycnoporus cinnabarinus glyoxal oxidases display differential catalytic efficiencies on 5-hydroxymethylfurfural and its oxidized derivatives” (Fungal Biology and Biotechnology, 2019).

Columns and labels:
Assay in all cases: purified protein
Format in all cases: biochemical, Trametes cinnabarina
Conditions in all cases: 50 mM sodium tartrate pH 6, 30 °C, HRP 8 U, 0.1 mM ABTS, 5 µM H2O2
purified protein [1] = substrate: O=Cc1ccc(C=O)o1
purified protein [2] = substrate: O=Cc1ccc(CO)o1
purified protein [3] = substrate: O=CC=O
purified protein [4] = substrate: O=CC(=O)O
purified protein [5] = substrate: OCC(O)CO
purified protein [6] = substrate: CC(=O)C=O

B1: PciGLOX1 (Trametes cinnabarina) (protein)
chain: APSAPGWRFDLKAERSGIVALESIVVSPTLVLWFDRASDDPLQINNHSAWGALWNLETSTVRPLNVLTNSFCASGALLSNGSMASVGGDPRGFPGNPAINPGNQAIRIFEPCASPTGDGCTVFEDPQTLHLLEDRWYPSSIRIFDGSLLIVGGTHVNENFYNLHPANSFEFFPPKESTPRPSAFLERSLPANLFPRIFALPDGKVFMVANNQSIIYDIEANTERILPDIPNNVRVTNPIDGSAILLPLTPPDYIPEVLVCGGTSTDPLDPSLLSSQTPATTQCSRIRLDEEGIAKGWQVEHMLEPRTMPELVHIPNGQILIANGARTGFAAIKQVQDPIGNSNSDHAVLVPSIYTPDAPLGQRISNAGMPSSGIARVYHSSITLTPQGNFLIAGSNPNGNTTVGPGVKFPSEFRVQTLDPPFMFVERPKILNTPEKLAFNKTFTVPISVPSTLASPGAKVQVSLMDLGFSSHAFHSSARLVFMDATISRDRRSLTFTTPPNGRVFPPGPATVFLTIDGVTSEGAWVMMGSGNSPPTLE
notes: secreted copper radical oxidase (AA5), heterologously produced in Aspergillus niger, purified
For B1, which Km (purified protein [1]) is on record?
The Km was 4380 ± 100 µM.

And the kcat (purified protein [1])?
Its kcat is 0.54 ± 0.24 s⁻¹.

What about the kcat/Km (purified protein [1]) of the same protein?
Its kcat/Km is 124.39 ± 0.01 M⁻¹ s⁻¹.

What about the Km (purified protein [2]) of the same protein?
The Km was 15660 ± 2350 µM.

What about the kcat (purified protein [2]) of the same protein?
Its kcat is 1.59 ± 0.12 s⁻¹.

What about the kcat/Km (purified protein [2]) of the same protein?
The kcat/Km was 101.66 ± 0.01 M⁻¹ s⁻¹.

B2: PciGLOX2 (Trametes cinnabarina) (protein)
chain: APSTPTGWQFNLKAERSGIVALESIVVSPTLVVFFDRATNDPLQINNHSAWGALWNLETSTVRALDVLTNSFCASGALLSNGTMASIGGDPNGFPGNPAIHPGTQAIRLFEPCDSPTGEGCTLFEDPVTLHLLEKRWYPSSVRIFDGSLLIVGGMHEETPFYNTDPALSFEFFPPKESTPRPSEFLNRSLPANLFPRVFALPDGKVFMVANNQSIIYDIEANTERILPDIPNNVRVTNPIDGSAILLPLSPPDFVPEVLVCGGTQTDTIDPSLLTSQTPASSQCSRIRLDEEGIARGWEVEHMLEGRMMPELVHLPNGQVLIANGARTGFAAIASVSDPVGGSNADHAVLVPSLYTPDAPLGTRISNVGLPSSGIARVYHSSITLTPQGNFLIAGSNPNNNSSVTAGVKFPSEFRVQTLDPPFMFVERPKILSMPKKLAFGKSFTVPIAVPSTLAHPGAKVQVSLMDLGFSSHAFHSSARLVFMNAKISQDGKSLTFTTPPNGRVYPPGPATIFLTIDDVTSEGAWVMMGSGNPPPTLE
notes: as for B1
B2 was tested. Which Km (purified protein [1]) did it give?
The Km was 210 ± 40 µM.

And the kcat (purified protein [1])?
The kcat was 4.8 ± 0.24 s⁻¹.

And the kcat/Km (purified protein [1])?
The kcat/Km was 23404 ± 0.01 M⁻¹ s⁻¹.

And the Km (purified protein [2])?
The Km was 5870 ± 2040 µM.

What about the kcat (purified protein [2]) of the same protein?
The kcat was 0.56 ± 0.09 s⁻¹.

And the kcat/Km (purified protein [2])?
Its kcat/Km is 96.04 ± 0.01 M⁻¹ s⁻¹.

B3: PciGLOX3 (Trametes cinnabarina) (protein)
chain: APSAPGWSFDLKKETSGIVALEAIVVSPTLVVFFDRASDDPLQINNHSAWGALWNLESSTVRPLDVLTNSFCASGALLSNGTMASVGGDPDGFVGNPAIRPGNQAIRLFEPCDSPTGDGCTLFEDPATLHLLEKRWYPSSARIFDGSLIIVGGMHEATPFYNTDPALSFEFFPRKEDTPRPSEFLNRSLPANLFPRVFALPDGKVFMVANNQSIIYDIEAKTERILPDVPNNVRVTNPMDGSAILLPLSPPDFVPEVLVCGGSQTDTIDPSLLTSQTPASSQCSRIRLDEEGIAKGWEVEHMLEGRIMPELVHLPNGQVLIANGGRTGFAAIASVSEPVGNSNADHPVLVPSLYTPDAPLGRRISNVGLPSSGIPRLYHSSVTLTPQGNFLIAGSNPNNRTTVGPGIKFPSEFRVQTLDPPFMSVERPKILNMPKKLGFNKSFTVPISVPSSLARPGAKVQISLMDLGFSSHAFHSSARLVFMNGKISQDSKSLTFTTPPNGRVYPPGPATVFLTIDDVTSEGAWVMMGSGNSPPTLE
notes: as for B1
B3 was tested. Which Km (purified protein [3]) did it give?
Its Km is 700 µM.

And the Km (purified protein [4])?
Its Km is 500 µM.

And the Km (purified protein [5])?
Its Km is 5500 µM.

What about the Km (purified protein [1]) of the same protein?
Its Km is 180 ± 50 µM.

And the kcat (purified protein [1])?
The kcat was 1.28 ± 0.09 s⁻¹.

And the kcat/Km (purified protein [1])?
The kcat/Km was 7267.7 ± 0.01 M⁻¹ s⁻¹.

And the Km (purified protein [2])?
Its Km is 6350 ± 1320 µM.

What about the kcat (purified protein [2]) of the same protein?
Its kcat is 0.75 ± 0.07 s⁻¹.

What about the kcat/Km (purified protein [2]) of the same protein?
The kcat/Km was 118.35 ± 0.01 M⁻¹ s⁻¹.

What about the Km (purified protein [6]) of the same protein?
Its Km is 100 µM.
